The assay addresses preformed, sonicated Aβ aggregates (UniProt P05067 672-713). Nature of the assay: cell-based or functional assay.

preformed, sonicated Aβ aggregates, sequence (P05067 672-713): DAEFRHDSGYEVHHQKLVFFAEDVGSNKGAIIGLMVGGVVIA

Consider KLWFFAGSGAPIGL [AbCap_25], for which the “aggregation seeding capacity of Aβ in Aβ biosensor cells (IC50)” value was 1420 nM.
